Substrate: O=c1ccn([C@H]2C[C@H](O)[C@@H](COP(=O)(O)O)O2)c(=O)[nH]1
Test: Kinetic analysis of TS activity (substrates)
Type: biochemical, Trypanosoma brucei
Details: other: clarified E. coli lysate, spectrophotometric assay
Procedure: The initial characterisation of TS was also carried out using a spectrophotometric assay. Owing to the pronounced instability of the recombinant protein, clarified ThyA^- E. coli lysates were used for characterisation, where the concentration of TS was calculated based on DHFR activity. […] . Enzymatic reactions were initiated by the addition of CH2THF (200 μM, Shircks Laboratories) and initial rates of CH2THF oxidation to DHF monitored by the increase in absorbance at 340 nm (ε = 6,200 M^-1 cm^-1). This method is not suitable for determination of the Km^app for CH2THF and a radiometric method was used instead. This method measures the release of tritiated water from 5-[^3H]-dUMP (American Radiochemicals, 14.3 Ci mmol^-1). Assays (40 μl final volume) contained 200 nM TS and varying amounts of CH2THF (37.5 μM– 4.8 mM) in DHFR-assay buffer. Reactions were initiated by adding 200 μM [^3H]-dUMP (5.55 × 10^5 dpm nmol^-1) and stopped after 10 min by the addition of 20 μl trichloroacetic acid. Residual 5-[^3H]-dUMP was removed by the addition of 200 μl of 10% (w/v) activated charcoal (Sigma). Aliquots (100 μl) of the supernatants were added to 2 ml of scintillation fluid (Pico-Fluor 40™, Packard Bioscience) and radioactivity determined using a Beckmann LS 6500 Scintillation Counter. […] Protein concentrations were determined using the BioRad protein assay based on the method of Bradford. […]

B1: T. brucei TS (Tsf-TbDHFR-TS) (Trypanosoma brucei brucei) (protein)
chain: MLSLTRILRKKIPVHELAGKISRPPLRPFSVVVASDEKGGIGDGGTIPWEIPEDMQYFRRVTTNLRGKNVKPSPSKRNAVVMGRKTWDSLPPKFRPLSNRLNVVLSRSATKEQLLAGIPDPIKRAEAANDVVAVNGGLEDALRMLVSKEHTSSIETVFCIGGGTIYKQALCAPCVNVLQAIHRTVVRPASNSCSVFFDIPAAGTKTPEGLELVRESITDERVSTGAGGKKYQFEKLVPRNSEEEQYLNLVGRIIDEGCTKCDRTGVGTRSLFGAQMRFSLRNNRLPLLTTKRVFWRGVCEELLWFLRGETNAKLLSDKGIHIWDGNGSRAFLDSRGLTDYDEMDLGPVYGFQWRHFGADYISCKVDSEGKGVDQIANIVKSLIENPDDRRMICTAWNPAALPRMALPPCHMMAQFYVSNGELSCMLYQRSCDMGLGVPFNIASYALLTFLMAKASGLRPGELVHTLGDAHVYSNHVEPCRKQLKRVPRPFPFIVFKQDKEFLEDFQESDIEVIDYSPYPVISMEMAV
notes: The open reading frame of DHFR-TS was amplified by PCR from T. brucei gDNA using specific oligonucleotides; made in house; host or cells: thyA- E. coli derived from BL21 Star (DE3); unpurified clarified lysate
  Km: 8.2 ± 0.6 µM
